# From US20170295781A1 (AGROSAVFE N V, published 2017)
# T1: potato lectin (Sigma) (potato, UniProt Q9S8M0 23-323)
# T1 construct: Bought glycoprotein coated on ELISA plates
# T1 sequence (looked up): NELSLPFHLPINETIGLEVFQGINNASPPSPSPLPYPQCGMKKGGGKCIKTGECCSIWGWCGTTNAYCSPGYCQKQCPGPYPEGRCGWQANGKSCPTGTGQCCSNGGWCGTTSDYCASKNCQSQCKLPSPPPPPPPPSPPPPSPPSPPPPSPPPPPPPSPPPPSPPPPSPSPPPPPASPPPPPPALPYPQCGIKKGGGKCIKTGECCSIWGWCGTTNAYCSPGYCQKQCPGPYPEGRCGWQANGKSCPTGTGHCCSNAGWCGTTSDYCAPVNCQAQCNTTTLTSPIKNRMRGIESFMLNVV
# Legend:
# [1] = target: potato lectin (Sigma) (potato) (UniProt Q9S8M0); test: ELISA-like assay, Uvitex OB microcapsules on potato lectin-coated wells, surface coverage 4%
# [2] = target: potato lectin (Sigma) (potato) (UniProt Q9S8M0); test: ELISA-like assay, Uvitex OB microcapsules on potato lectin-coated wells, surface coverage 20%
# [3] = target: potato lectin (Sigma) (potato) (UniProt Q9S8M0); test: ELISA-like assay, Uvitex OB microcapsules on potato lectin-coated wells, surface coverage 100%
# [4] = target: potato lectin (Sigma) (potato) (UniProt Q9S8M0); test: ELISA-like assay, lambda-cyhalothrin microcapsules on potato lectin-coated wells, surface coverage 4%
# [5] = target: potato lectin (Sigma) (potato) (UniProt Q9S8M0); test: ELISA-like assay, lambda-cyhalothrin microcapsules on potato lectin-coated wells, surface coverage 20%
# [6] = target: potato lectin (Sigma) (potato) (UniProt Q9S8M0); test: ELISA-like assay, lambda-cyhalothrin microcapsules on potato lectin-coated wells, surface coverage 100%
# [7] = target: potato lectin (Sigma) (potato) (UniProt Q9S8M0); test: ELISA-like assay, Uvitex microcapsules on wells coated with 5 ug/well potato lectin, surface coverage 4%
# [8] = target: potato lectin (Sigma) (potato) (UniProt Q9S8M0); test: ELISA-like assay, Uvitex microcapsules on wells coated with 5 ug/well potato lectin, surface coverage 20%
# [9] = target: potato lectin (Sigma) (potato) (UniProt Q9S8M0); test: ELISA-like assay, Uvitex microcapsules on wells coated with 5 ug/well potato lectin, surface coverage 100%
# potato lectin (Sigma) [10] = target: T1, potato lectin (Sigma); test: ELISA, potato lectin coated at 100 ug/ml, VHH at 3 ug/ml, anti-histidine detection
# Protocol: ELISA plates (Maxisorp, Nunc) coated with 100 μl per well 100 μg/ml potato lectin (Sigma) in PBS were coated at 4° C. overnight and coating was continued at room temperature for 1 hour on the next day. Plates were washed three times with PBS/0.05%-TWEEN®-20 and blocked with 5% skimmed milk in PBS for 1 hour. VHH (3 μg/ml) were transferred to the potato lectin-coated plates and VHH antibody fragments were allowed to bind for 1 hour at room temperature. Bound VHH were detected with sequential incubations with monoclonal mouse anti-histidine antibodies (Abd Serotec) and rabbit anti-mouse IgG whole molecule antibodies conjugated with alkaline phosphatase (RaM/AP) (Sigma) in 1% MPBS/0.05%-TWEEN®-20. Unbound antibodies were removed by washing three times with PBS/0.05%-TWEEN®-20 after each antibody incubation. The plates were washed an additional two times with PBS and 100 μl pNPP disodium hexahydrate substrate (Sigma) was added to each well and the absorbance at 405 nm was measured (see Table 2).
# potato lectin (Sigma) [11] = target: T1, potato lectin (Sigma); test: ELISA-like assay, Uvitex microcapsules on potato lectin-coated wells, 25-fold less microcapsules
# Protocol: An ELISA-like assay was performed using high bind half area microplates (Greiner Bio-One) coated with 5 μg/well potato lectin. Control wells included blank wells or wells coated with unrelated antigens. Plates were washed three times with PBS with 0.05%-TWEEN®-20 and blocked with 5% skimmed milk in PBS for 1 to 2 hours. VHH-coupled Uvitex-containing microcapsules were diluted to appropriate densities in 1% skimmed milk in PBS with 0.05%-TWEEN®-20. Five-fold serial dilution series were prepared and allowed to bind to the surface to compare binding of microcapsules coupled with monovalent or bivalent VHH. Microcapsules were added to the antigen-coated or control wells and allowed to bind for 1 hour. Unbound microcapsules were removed by washing five times with PBS with 0.05%-TWEEN®-20. The bottoms of ELISA plate wells were analyzed for bound microcapsules on a macrozoom microscope system (Nikon). Microcapsules were counted using Volocity image analysis software (Perkin Elmer). A DAPI filter was used to visualize Uvitex microcapsules. […] The surface area of microcapsules with coupled bivalent VHH was 15-fold above the surface area of blank microcapsules applied at this microcapsule density while the surface area of microcapsules with monovalent VHH was only six-fold above the surface area of blank microcapsules applied at this microcapsule density. […]
# unrelated antigen [12] = test: ELISA-like assay, Uvitex microcapsules on wells coated with unrelated antigen, surface coverage 4%
# unrelated antigen [13] = test: ELISA-like assay, Uvitex microcapsules on wells coated with unrelated antigen, surface coverage 20%
# unrelated antigen [14] = test: ELISA-like assay, Uvitex microcapsules on wells coated with unrelated antigen, surface coverage 100%
molecule,measurement,setting,value
unrelated control VHH coupled to microcapsules,area of bound microcapsules (area (unit not given)),[1],7.53
same,area of bound microcapsules (area (unit not given)),[2],35.4
same,area of bound microcapsules (area (unit not given)),[3],16.7
same,counts of bound microcapsules,[4],348 counts
same,counts of bound microcapsules,[5],709 counts
same,counts of bound microcapsules,[6],828 counts
same,surface area of bound microcapsules (area (unit not given)),[7],19.2
same,surface area of bound microcapsules (area (unit not given)),[8],43.5
same,surface area of bound microcapsules (area (unit not given)),[9],142
"VHH 3E6 (VHH, Purified hexahistidine-tagged VHH from E. coli periplasm; not shown: hexahistidine tag) VHH: QVQLQESGGGLVQPGGTLSLSCAASGFNVRWYGMGWFRQAPGKEREGVACISALQETTAYADSVKGRFTLSRDNPKNTLSLQMNNLQPEDTGVYYCATTDCDDSSRMTYTSYLGQGTQVTVSS",absorbance at 405 nm,potato lectin (Sigma) [10],4 A405
"VHH 3E6 coupled to polyurea microcapsules (VHH, coupled by carbodiimide (EDC) chemistry to carboxylic acid groups on the microcapsule shell, also called Monovalent VHH 3E6; monovalent VHH; not shown: hexahistidine tag) VHH: QVQLQESGGGLVQPGGTLSLSCAASGFNVRWYGMGWFRQAPGKEREGVACISALQETTAYADSVKGRFTLSRDNPKNTLSLQMNNLQPEDTGVYYCATTDCDDSSRMTYTSYLGQGTQVTVSS",fold surface area above blank microcapsules,potato lectin (Sigma) [11],6 fold
"Bivalent VHH 3E6 coupled to polyurea microcapsules (VHH, coupled by carbodiimide chemistry to the microcapsule shell) QVQLQESGGGLVQPGGTLSLSCAASGFNVRWYGMGWFRQAPGKEREGVACISALQETTAYADSVKGRFTLSRDNPKNTLSLQMNNLQPEDTGVYYCATTDCDDSSRMTYTSYLGQGTQVTVSSGGGGSGGGSQVQLQESGGGLVQPGGTLSLSCAASGFNVRWYGMGWFRQAPGKEREGVACISALQETTAYADSVKGRFTLSRDNPKNTLSLQMNNLQPEDTGVYYCATTDCDDSSRMTYTSYLGQGTQVTVSSAAAEQKLISEEDLNGAAHHHHHH",surface area of bound microcapsules (area (unit not given)),unrelated antigen [12],15
same,surface area of bound microcapsules (area (unit not given)),unrelated antigen [13],22.1
same,surface area of bound microcapsules (area (unit not given)),unrelated antigen [14],45.7
same,fold surface area above blank microcapsules,potato lectin (Sigma) [11],15 fold
"VHH 5C4 (VHH, not shown: hexahistidine tag) VHH: QVQLQESGGGLVQPGGSLRLSCAASGFSLRYFGIGWFRQVAGKEREPVSCSNVRDGNTYYADSVKGRFTISRDNVRNTLYLQMNSLKPEDTAVYSCATTDCEATTWGTYRGYFGQGTQVTVSS",absorbance at 405 nm,potato lectin (Sigma) [10],4 A405
"VHH 5G5 (VHH, not shown: hexahistidine tag) VHH: QVQLQESGGGLVQPGGSLRLSCAASGFSLRYFGIGWFRQAAGKEREGISCSNVRDGNTYYADSVKGRFTISRDNVRNMLYLQMNNLKPDDTAVYSCATTDCEATTWGTYRGYFGQGTQVTVSS",absorbance at 405 nm,potato lectin (Sigma) [10],4 A405
"VHH 7D2 (VHH, not shown: hexahistidine tag) VHH: QVQLQESGGGLVQPGRSLKVACAAAGFSLRYYGIGWFRQAPGKEREAVSCTSANDGSTYYRDSVRGRFTISRDDGKNTVYLQMNRLKPEDTAVYYCATTDCDATSWGTWINYYGQGTQVTVSS",absorbance at 405 nm,potato lectin (Sigma) [10],4 A405
"VHH 5D4 (VHH, not shown: hexahistidine tag) VHH: QVQLQESGGGLVQPGGSLRLSCAASGFDMRRFGIGWFRQVAGKEREGVSCSNVHDGTTYYTNDVKGRFTIVRDNTKNMLYLQMNKLRPEDTAVYSCATTDCEATAWGTYRGYFGQGTQVTVSS",absorbance at 405 nm,potato lectin (Sigma) [10],4 A405
